This note sets out measurements from FireProtDB (doi:10.1021/bi001735j).

Several values for one entry are separate records, joined by “and”; a condition that tells them apart may be missing. Identical values can stand only once.

The conditions of this data set: Homo sapiens, pH 7, 25 °C, GdnHCl, CD, sodium cacodylate 50 mM, NaCl 50 mM, whole UniProt chain shown.

B1: Alpha-lactalbumin wild type, P00709 (protein)
chain: MRFFVPLFLVGILFPAILAKQFTKCELSQLLKDIDGYGGIALPELICTMFHTSGYDTQAIVENNESTEYGLFQISNKLWCKSSQVPQSRNICDISCDKFLDDDITDDIMCAKKILDIKGIDYWLAHKALCTEKLEQWLCEKL
Turning to B1, the denaturant m value is 2.9 kcal/mol/M and 2.4 kcal/mol/M and 4.4 kcal/mol/M; the unfolding free energy was 6.9 kcal/mol and 7.2 kcal/mol and 13.8 kcal/mol. Further, the denaturant m value (transition: 3) was 2.2 kcal/mol/M and 0.77 kcal/mol/M and 0.75 kcal/mol/M.
